Experimental data published in the supplement of paper PMC12783771.
± gives the standard deviation of the averaged measurements.

B1: library; numbered along this chain (parent)
chain: MNIQIGELAKRTACPVVTIRFYEQEGLLPPPGRSRGNFRLYGEEHVERLQFIRHCRSLDMPLSDVRTLLSYRKRPDQDCGEVNMLLDEHIRQVESRIGALLELKHHLVELREACSGARPAQSCGILQGLSDCVCDTRGTTAHPSD

Experiments:
[1] = variants of: B1; assay: sfGFP reporter fluorescence (15 h) (µM FITC); higher = higher leak; conditions: library round: Round 1; ligand: none
Summary of the method: (§1)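 Values are endpoint sfGFP fluorescence given as µM FITC equivalents. Fluorescence was read at 485/528 nm on a Synergy Neo2, and FITC standard curves were prepared in 50 mM sodium borate pH 8.5. Reactions of 1 μL combined BL21 Star (DE3) PANOx-SP extract, pPbrR-sfGFP reporter, 30 μg/mL GamS and linear PbrR templates (PCR-made, Echo-normalized to 5 nM), with 1 µM lead chloride, 30 µM zinc acetate or no metal, for 15 hr at 30 °C.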

[2] = variants of: B1; assay: sfGFP reporter fluorescence (15 h) (µM FITC); higher = stronger transcriptional activation; conditions: library round: Round 1
Summary of the method: as §1

[3] = variants of: B1; assay: sfGFP reporter fluorescence (15 h) (µM FITC); higher = higher leak; conditions: library round: Round 0; ligand: none
Experimental: (§2)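 Cell-free (BL21 Star DE3 extract, PANOx-SP) biosensing: 1 µL Echo-assembled reactions with linear PbrR variant templates (5 nM) and pPbrR-sfGFP reporter, with 1 µM Pb (lead chloride), 30 µM Zn (zinc acetate) or no ligand; endpoint sfGFP fluorescence after 15 h at 30 °C, calibrated as µM FITC. Round 0 library (alanine scan, site saturation, combinatorial) of PbrR from Cupriavidus metallidurans; 2 biological replicates.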

[4] = variants of: B1; assay: sfGFP reporter fluorescence (15 h) (µM FITC); higher = stronger transcriptional activation; conditions: library round: Round 0
Experimental: as §2

What does the source list for N83T R96A?
sfGFP reporter fluorescence [1]: 0.0645 ± 0.00037; sfGFP reporter fluorescence ([2]; ligand: 1 µM Pb): 0.0756 ± 0.0031; sfGFP reporter fluorescence ([2]; ligand: 30 µM Zn): 0.0938 ± 0.0026

For H142C P143A, which sfGFP reporter fluorescence [1] is on record?
Its sfGFP reporter fluorescence is 0.0676 ± 0.0022.

And the sfGFP reporter fluorescence ([2]; ligand: 1 µM Pb)?
The sfGFP reporter fluorescence was 0.0772 ± 0.0027.

And the sfGFP reporter fluorescence ([2]; ligand: 30 µM Zn)?
Its sfGFP reporter fluorescence is 0.384 ± 0.03.

Which sfGFP reporter fluorescence [1] does the source give for D64K N83T R111L here?
Its sfGFP reporter fluorescence is 0.0651 ± 0.0024.

What about the sfGFP reporter fluorescence ([2]; ligand: 1 µM Pb) of the same variant?
Its sfGFP reporter fluorescence is 0.125 ± 0.0074.

What about the sfGFP reporter fluorescence ([2]; ligand: 30 µM Zn) of the same variant?
The sfGFP reporter fluorescence was 0.532 ± 0.049.

For K104V G128M, which sfGFP reporter fluorescence [3] is on record?
The sfGFP reporter fluorescence was 0.179 ± 0.0031.

What about the sfGFP reporter fluorescence ([4]; ligand: 1 µM Pb) of the same variant?
The sfGFP reporter fluorescence was 0.808 ± 0.088.

And the sfGFP reporter fluorescence ([4]; ligand: 30 µM Zn)?
Its sfGFP reporter fluorescence is 3.325 ± 0.0054.

With L62I K104V as the variant, how does the sfGFP reporter fluorescence [1] read?
The sfGFP reporter fluorescence was 0.072 ± 0.0011.

What about the sfGFP reporter fluorescence ([2]; ligand: 1 µM Pb) of the same variant?
The sfGFP reporter fluorescence was 0.109 ± 0.0031.

What about the sfGFP reporter fluorescence ([2]; ligand: 30 µM Zn) of the same variant?
Its sfGFP reporter fluorescence is 0.417 ± 0.022.

What does the source list for M60L P61N D64K K104V G128I?
sfGFP reporter fluorescence [3]: 0.345 ± 0.029; sfGFP reporter fluorescence ([4]; ligand: 1 µM Pb): 0.915 ± 0.075; sfGFP reporter fluorescence ([4]; ligand: 30 µM Zn): 2.39 ± 0.063

For M60L D64K K104V L107C G128I, which sfGFP reporter fluorescence [1] is on record?
The sfGFP reporter fluorescence was 1.95 ± 0.25.

What about the sfGFP reporter fluorescence ([2]; ligand: 1 µM Pb) of the same variant?
The sfGFP reporter fluorescence was 2.02 ± 0.3.

What about the sfGFP reporter fluorescence ([2]; ligand: 30 µM Zn) of the same variant?
The sfGFP reporter fluorescence was 2.61 ± 0.17.

Which sfGFP reporter fluorescence [1] does the source give for L107C G124A G128M here?
The sfGFP reporter fluorescence was 0.371 ± 0.0094.

What about the sfGFP reporter fluorescence ([2]; ligand: 1 µM Pb) of the same variant?
Its sfGFP reporter fluorescence is 1.13 ± 0.051.

What about the sfGFP reporter fluorescence ([2]; ligand: 30 µM Zn) of the same variant?
The sfGFP reporter fluorescence was 2.08 ± 0.19.

Which sfGFP reporter fluorescence [1] does the source give for N83I D131S here?
Its sfGFP reporter fluorescence is 0.063 ± 0.0013.

And the sfGFP reporter fluorescence ([2]; ligand: 1 µM Pb)?
The sfGFP reporter fluorescence was 0.0862 ± 0.0031.

And the sfGFP reporter fluorescence ([2]; ligand: 30 µM Zn)?
Its sfGFP reporter fluorescence is 0.0633 ± 0.0013.

What does the source list for C114N?
sfGFP reporter fluorescence [3]: 0.0583 ± 0.0021; sfGFP reporter fluorescence ([4]; ligand: 1 µM Pb): 0.0579 ± 0.0015; sfGFP reporter fluorescence ([4]; ligand: 30 µM Zn): 0.0546 ± 0.0015

For C114H, which sfGFP reporter fluorescence [3] is on record?
Its sfGFP reporter fluorescence is 0.0581 ± 0.0023.

What about the sfGFP reporter fluorescence ([4]; ligand: 1 µM Pb) of the same variant?
The sfGFP reporter fluorescence was 0.0586.

What about the sfGFP reporter fluorescence ([4]; ligand: 30 µM Zn) of the same variant?
The sfGFP reporter fluorescence was 0.0563 ± 0.0034.

What does the source list for D64K C79L?
sfGFP reporter fluorescence [1]: 0.0594 ± 0.00097; sfGFP reporter fluorescence ([2]; ligand: 1 µM Pb): 0.05925 ± 0.00021; sfGFP reporter fluorescence ([2]; ligand: 30 µM Zn): 0.0572 ± 0.00064

For P61N V108M R111C, which sfGFP reporter fluorescence [1] is on record?
The sfGFP reporter fluorescence was 0.0735 ± 0.00085.

And the sfGFP reporter fluorescence ([2]; ligand: 1 µM Pb)?
Its sfGFP reporter fluorescence is 0.0925 ± 0.013.

And the sfGFP reporter fluorescence ([2]; ligand: 30 µM Zn)?
The sfGFP reporter fluorescence was 0.237 ± 0.0083.

For E7C, which sfGFP reporter fluorescence [3] is on record?
Its sfGFP reporter fluorescence is 0.06121 ± 0.00052.

What about the sfGFP reporter fluorescence ([4]; ligand: 1 µM Pb) of the same variant?
The sfGFP reporter fluorescence was 0.0718 ± 0.0021.

What about the sfGFP reporter fluorescence ([4]; ligand: 30 µM Zn) of the same variant?
The sfGFP reporter fluorescence was 0.421 ± 0.026.

For L28H, which sfGFP reporter fluorescence [3] is on record?
Its sfGFP reporter fluorescence is 0.06249 ± 0.00026.

And the sfGFP reporter fluorescence ([4]; ligand: 1 µM Pb)?
The sfGFP reporter fluorescence was 0.0625 ± 0.0013.

And the sfGFP reporter fluorescence ([4]; ligand: 30 µM Zn)?
Its sfGFP reporter fluorescence is 0.0563 ± 0.0034.

With L100I as the variant, how does the sfGFP reporter fluorescence [1] read?
Its sfGFP reporter fluorescence is 0.0611 ± 0.0014.

And the sfGFP reporter fluorescence ([2]; ligand: 1 µM Pb)?
Its sfGFP reporter fluorescence is 0.0649 ± 0.0013.

And the sfGFP reporter fluorescence ([2]; ligand: 30 µM Zn)?
Its sfGFP reporter fluorescence is 0.216 ± 0.019.

For Y22D, which sfGFP reporter fluorescence [3] is on record?
The sfGFP reporter fluorescence was 0.06066 ± 0.00026.

What about the sfGFP reporter fluorescence ([4]; ligand: 1 µM Pb) of the same variant?
Its sfGFP reporter fluorescence is 0.0618 ± 0.0018.

And the sfGFP reporter fluorescence ([4]; ligand: 30 µM Zn)?
Its sfGFP reporter fluorescence is 0.06011 ± 0.00052.

For P61D D64M R111L, which sfGFP reporter fluorescence [1] is on record?
Its sfGFP reporter fluorescence is 0.177 ± 0.015.

What about the sfGFP reporter fluorescence ([2]; ligand: 1 µM Pb) of the same variant?
The sfGFP reporter fluorescence was 0.323 ± 0.09.

What about the sfGFP reporter fluorescence ([2]; ligand: 30 µM Zn) of the same variant?
Its sfGFP reporter fluorescence is 1.43 ± 0.099.

Which results are given for M60L K104V L107C G128M?
sfGFP reporter fluorescence [3]: 2.296 ± 0.0044; sfGFP reporter fluorescence ([4]; ligand: 1 µM Pb): 4.53 ± 0.18; sfGFP reporter fluorescence ([4]; ligand: 30 µM Zn): 3.641 ± 0.033

For G128I C134E, which sfGFP reporter fluorescence [1] is on record?
Its sfGFP reporter fluorescence is 0.0745 ± 0.0014.

What about the sfGFP reporter fluorescence ([2]; ligand: 1 µM Pb) of the same variant?
Its sfGFP reporter fluorescence is 0.139 ± 0.0047.

And the sfGFP reporter fluorescence ([2]; ligand: 30 µM Zn)?
Its sfGFP reporter fluorescence is 1.38 ± 0.067.

Which sfGFP reporter fluorescence [1] does the source give for D64K N83S I90N here?
Its sfGFP reporter fluorescence is 0.0679 ± 0.0014.

What about the sfGFP reporter fluorescence ([2]; ligand: 1 µM Pb) of the same variant?
Its sfGFP reporter fluorescence is 0.223 ± 0.065.

What about the sfGFP reporter fluorescence ([2]; ligand: 30 µM Zn) of the same variant?
Its sfGFP reporter fluorescence is 0.737 ± 0.02.

Which results are given for C55L K104V?
sfGFP reporter fluorescence [1]: 0.0651 ± 0.0015; sfGFP reporter fluorescence ([2]; ligand: 1 µM Pb): 0.0729 ± 0.004; sfGFP reporter fluorescence ([2]; ligand: 30 µM Zn): 0.121 ± 0.0031

With D131S D135P as the variant, how does the sfGFP reporter fluorescence [1] read?
The sfGFP reporter fluorescence was 0.0663 ± 0.0043.

What about the sfGFP reporter fluorescence ([2]; ligand: 1 µM Pb) of the same variant?
The sfGFP reporter fluorescence was 0.105 ± 0.0076.

What about the sfGFP reporter fluorescence ([2]; ligand: 30 µM Zn) of the same variant?
The sfGFP reporter fluorescence was 0.547 ± 0.082.
